# ± gives the uncertainty stated by the source.
# Assay: protein stability index of a GFP-peptide fusion (yeast GPS) (PSI 1-4); higher = more stable; sorted into four equal gates, so the index is relative within each strain
# How it was run: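 Each library plasmid carries Cherry plus GFP with a tiled 17-residue yeast protein peptide fused downstream, and the pooled library was carried in yeast. Mid-log cultures in leucine-free medium were sorted into four equal gates by GFP/Cherry ratio. Reads from Illumina sequencing of PCR-amplified plasmids from each gate were assigned to strains by barcodes. Per peptide, the protein stability index was computed as the summed products of gate read frequency and gate number.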
Sequence,protein stability index (doa10∆),protein stability index (pdr5∆),protein stability index (san1∆),protein stability index (ubr1∆)
APNNSNGGSEEEITCAL [MED7],3.45 ± 0.094,3.45 ± 0.13,3.42 ± 0.095,3.31 ± 0.085
EEAPAPTPAASAPAPAA [FAS2],2.8 ± 0.095,2.95 ± 0.076,2.85 ± 0.091,3.02 ± 0.1
VVIAADTRSTQGPIVAD [PUP1],2.65 ± 0.1,3.29 ± 0.24,2.68 ± 0.19,3 ± 0.072
QWLIMLGICTHLGCVPI [RIP1],1.69 ± 0.067,1.37 ± 0.078,1.29 ± 0.14,1.46 ± 0.089
GLLDESPNRLRVRTDDS [YML031W/NDC1],1.5 ± 0.098,1.82 ± 0.15,1.67 ± 0.12,1.64 ± 0.051
KAGGECITLDQLAVRAP [RPL18A],2.1 ± 0.097,2.29 ± 0.085,2.86 ± 0.072,2.57 ± 0.077
CARFLGNRGFSIGINDV [RPO31],2.32 ± 0.21,–,–,2.88 ± 0.21
IKDTANDNDITVKENES [UBP6],2.88 ± 0.1,2.45 ± 0.071,1.85 ± 0.075,1.41 ± 0.047
LLERYIGNLITRQFEGR [PRP8],2.59 ± 0.11,2.63 ± 0.18,2.43 ± 0.15,1.99 ± 0.071
PCVEDGFVIQDRETALD [RPB2],3.17 ± 0.088,3.18 ± 0.11,3.16 ± 0.19,3.2 ± 0.078
TLEDALRRIITDLNQDS [GRR1],2.01 ± 0.074,1.86 ± 0.063,2.1 ± 0.067,2.4 ± 0.053
RKWAARAASAKIESSVE [RPS8A],3.21 ± 0.087,3.2 ± 0.062,2.74 ± 0.056,3.4 ± 0.054
SSDVDMDDEEWRSKRIE [RPC53],3.47 ± 0.1,3.17 ± 0.1,3.42 ± 0.053,3.31 ± 0.069
LANYLTSALSELSGLIS [QCR2],1.48 ± 0.047,1.88 ± 0.044,1.84 ± 0.064,1.59 ± 0.033
LPSEERIQKIISKRKEE [YIL149C/MLP2],1.74 ± 0.08,1.66 ± 0.074,1.41 ± 0.16,1.65 ± 0.055
EEPIKKLCYVLGVEDIT [RET1],–,–,3.08 ± 0.15,–
SSGFNEDIVGALRRRVG [REC8],1.17 ± 0.085,1.16 ± 0.055,1.44 ± 0.26,1.11 ± 0.11
CSRIIKIDKPIRTQVNT [RGR1],1.94 ± 0.067,2.31 ± 0.047,2.09 ± 0.059,2.1 ± 0.039
LFDAAFYMKKDAVEGVS [RPO31],2.75 ± 0.24,2.96 ± 0.14,3.31 ± 0.076,2.65 ± 0.11
FEEDSDLALPPPPPPPP [PRP8],3.08 ± 0.063,3.25 ± 0.066,3.27 ± 0.072,3.23 ± 0.062
SSFNKRSKFLSTVAKFL [IRR1],2.76 ± 0.052,2.28 ± 0.054,2.08 ± 0.067,2.4 ± 0.035
SSNTNNNTNNNNTNTGA [SWI1],3.48 ± 0.071,3.29 ± 0.069,3.29 ± 0.057,3.33 ± 0.065
GGEKTVAALALLFAINS [SMC1],1.2 ± 0.078,1.27 ± 0.092,1.12 ± 0.23,1.9 ± 0.14
RSRKTVKAQRPITGASL [RPL24A],3.34 ± 0.077,3.22 ± 0.11,3.14 ± 0.12,3.24 ± 0.088
RQTTSNTGLLNKANIQA [RPN11],3 ± 0.092,3.02 ± 0.072,3.17 ± 0.054,3.19 ± 0.07
KSKTSTGKERSKKRKLN [SNM1],3.1 ± 0.085,3.2 ± 0.097,3.644 ± 0.036,3.21 ± 0.09

Sequence,protein stability index (doa10∆),protein stability index (pdr5∆),protein stability index (san1∆),protein stability index (ubr1∆)
EIFDVTSNGLKKNPNWL [FAS1],3.54 ± 0.16,3.46 ± 0.11,2.64 ± 0.18,3.37 ± 0.06
AATMTSAPPPALPHVEI [RGR1],2.52 ± 0.072,2.83 ± 0.083,2.49 ± 0.079,2.3 ± 0.055
LGHPDNYIPGNPLVTPA [COB],2.49 ± 0.11,3.07 ± 0.13,2.93 ± 0.075,2.93 ± 0.068
LAAERKVTSTLLEQDTS [PRE9],2.46 ± 0.066,2.58 ± 0.082,2.65 ± 0.082,2.36 ± 0.089
DESTIKRIKPNTEITQK [ECM29],2.88 ± 0.051,2.96 ± 0.053,2.95 ± 0.046,2.91 ± 0.044
VQQSEKLRNEVERIQKM [YIL149C/MLP2],3.13 ± 0.13,3.42 ± 0.2,2.86 ± 0.2,3.24 ± 0.12
RVRVTGGGHVSQVYAIR [RPS16A],2.61 ± 0.048,2.87 ± 0.045,2.93 ± 0.044,2.76 ± 0.031
EPDLESQISKAEMEADS [SMC4],2.89 ± 0.078,3.39 ± 0.18,3.43 ± 0.069,2.55 ± 0.17
DIFSNLSSDDLLGKESF [YCS4],2.87 ± 0.05,2.24 ± 0.05,2.95 ± 0.044,2.86 ± 0.034
TGKTLLAKAVAATIGAN [RPT4],1.46 ± 0.074,1.75 ± 0.084,1.68 ± 0.16,2.08 ± 0.13
DDIINNDEPSHKKIKVA [SIR2],2.77 ± 0.052,2.84 ± 0.037,2.64 ± 0.041,2.87 ± 0.042
KLQSQSLHTKNVFGTLQ [YLR018C/POM34],2.87 ± 0.12,2.82 ± 0.12,2.29 ± 0.26,2.94 ± 0.11
VFLFDIEKVDRENMICK [RRI2],3.17 ± 0.17,3.24 ± 0.14,2.88 ± 0.19,3.29 ± 0.12
EDMIDQVSKKLSSIEAS [SMC3],3.07 ± 0.16,2.54 ± 0.15,2.84 ± 0.12,3.05 ± 0.12
IELLSDLINILEKKGFS [LIN1],1.22 ± 0.075,1.43 ± 0.082,1.28 ± 0.17,1.35 ± 0.062
SENAPSASSKEFNFTNL [YAR002W/NUP60],2.83 ± 0.052,2.94 ± 0.062,2.88 ± 0.051,2.99 ± 0.056
QLSNGIVVATEHNPSAH [COR1],2.88 ± 0.075,3.08 ± 0.1,3.2 ± 0.059,2.52 ± 0.074
KELVECHLYSQRMHAIH [NNF1],1.96 ± 0.056,2.05 ± 0.049,2.05 ± 0.085,2.23 ± 0.05
EENFEATRTLVASIQND [YCG1],3.03 ± 0.16,3.24 ± 0.11,3 ± 0.14,2.71 ± 0.14
ALAFCEIGITQQRIVSA [RRP4],1.71 ± 0.11,2.31 ± 0.11,1.92 ± 0.23,2.25 ± 0.075
ISLRNNMFELAQQLVGV [SMC4],1.24 ± 0.089,1.74 ± 0.079,1.78 ± 0.093,1.87 ± 0.084
SKELRAQYGIKALPIRR [RPL26A],3.44 ± 0.19,3.41 ± 0.17,3.49 ± 0.14,–
ENIAQMKPKAEKESDDG [SMC4],3.1 ± 0.26,3.16 ± 0.23,–,3.74 ± 0.2
ENDLSFALMRYYDRKEE [RRI2],3.12 ± 0.13,2.88 ± 0.12,2.97 ± 0.071,2.98 ± 0.073
ALRLSMEEEQQRQERLR [RPN10],3.33 ± 0.16,3.06 ± 0.26,3.36 ± 0.065,3.38 ± 0.11
